The text below walks through data of US20260242478A1 (published 2026).

Where no end group is shown, it is not given here.

Assay [1] has as its target T1, PSMA Fab.
T1 construct: also called Anti-PSMA Fab; 006 PSMA Fab
Briefly: phage ELISA; biotinylated PSMA Fab on neutravidin plate, blocking buffer alone, anti-M13 HRP detection.
Experimental: (§1) Clonal phage were harvested as crude supernatants and screened via standard ELISAs. […] Prior to the addition of clonal phage. wells were incubated with blocking buffer and PSMA antigen or blocking buffer alone. Without washing or aspirating, clonal phage supernatants were then added to the wells and incubated for a short time. Wells were then washed followed by detection of bound phage using a horse radish conjugated anti-M13 antibody.

In assay [2] the target is T1, PSMA Fab. The assay is described as follows: phage ELISA; biotinylated PSMA Fab on neutravidin plate, pre-incubated with PSMA antigen as competitor, anti-M13 HRP detection.
Experimental: as §1
The target in assay [3] is T2, 006 PSMA Fab.
T2 construct: also called Anti-PSMA Fab
Briefly: clonal phage ELISA on captured anti-PSMA Fab; competitor PSMA antigen.
Experimental: as §1

The target in assay [4] is T2, 006 PSMA Fab. Briefly: clonal phage ELISA on biotinylated anti-PSMA Fab captured on neutravidin, anti-M13 HRP detection.
Experimental: as §1
Assay [5] addresses T3, PSMA Fab.
T3 construct: Used biotinylated and captured on neutravidin plates in the phage ELISA; also called Anti-PSMA Fab; 006 PSMA Fab
Briefly: phage ELISA; biotinylated PSMA Fab on neutravidin plate, pre-incubated with PSMA antigen as competitor; anti-M13-HRP.
Experimental: as §1

Assay [6] concerns the target T3, PSMA Fab. Briefly: phage ELISA; biotinylated PSMA Fab on neutravidin plate, blocking buffer alone; bound phage detected with anti-M13-HRP.
Experimental: as §1

As to PGPSCVPSWMCVGF [Phage-3437], the “Phage binding ELISA signal, Anti-PSMA Fab” value in the assay with PSMA Fab [1] was found to be 1.76. In the assay with PSMA Fab [2], the “Phage binding ELISA signal, Anti-PSMA Fab in presence of PSMA” value was determined as 0.074.
PSISCTPQWMCFGF [Phage-3521]: in the assay with 006 PSMA Fab [3], the “phage binding ELISA signal with PSMA antigen present” value came out at 0.0639. Also, in the assay with 006 PSMA Fab [4], the “phage binding ELISA signal” value came to 1.68.
For the molecule VNRMCVPVWMCQGF (also called Peptide-180 library clone) [Phage-3739], the “Phage binding ELISA signal, Anti-PSMA Fab in presence of PSMA antigen” value (“Phage binding ELISA signal … of PSMA antigen” below) with PSMA Fab [5] stood at 0.0729. Also, the “Phage binding ELISA signal, Anti-PSMA Fab” value with PSMA Fab [6] was found to be 1.39.
LEKVCKPMWMCTGF [Phage-3448]: the “Phage binding ELISA signal, Anti-PSMA Fab” value with PSMA Fab [1] worked out at 1.75. Also, the “Phage binding ELISA signal, Anti-PSMA Fab in presence of PSMA” value in the assay with PSMA Fab [2] stood at 0.0949.
For the molecule SAIRCEPLWMCSGL [Phage-3519], in the assay with 006 PSMA Fab [3], the “phage binding ELISA signal with PSMA antigen present” value was determined as 0.0578. For the same molecule, the “phage binding ELISA signal” value with 006 PSMA Fab [4] was 1.68.
As to FTARCEPSWMCVGF (also called Peptide-180 library clone) [Phage-3730], the “Phage binding ELISA signal … of PSMA antigen” value with PSMA Fab [5] stood at 0.0626. Also, the “Phage binding ELISA signal, Anti-PSMA Fab” value with PSMA Fab [6] worked out at 1.41.
In the case of ITPMCIPAWMCEGV [Phage-3445], the “Phage binding ELISA signal, Anti-PSMA Fab” value with PSMA Fab [1] is 1.75. The “Phage binding ELISA signal, Anti-PSMA Fab in presence of PSMA” value with PSMA Fab [2] is 0.0611.
As to VSHHCVPAWMCFGL (also called Peptide-180 library clone) [Phage-3737], the “Phage binding ELISA signal … of PSMA antigen” value in the assay with PSMA Fab [5] was 0.0946. Further, the “Phage binding ELISA signal, Anti-PSMA Fab” value with PSMA Fab [6] is 1.39.
Take YNMICQPQWMCSGF [Phage-3447]: the “Phage binding ELISA signal, Anti-PSMA Fab” value in the assay with PSMA Fab [1] came to 1.75. Besides, in the assay with PSMA Fab [2], the “Phage binding ELISA signal, Anti-PSMA Fab in presence of PSMA” value was determined as 0.0661.
With VSPSCVPPWMCVGF [Phage-3531], the “phage binding ELISA signal with PSMA antigen present” value in the assay with 006 PSMA Fab [3] is 0.0791. For the same molecule, in the assay with 006 PSMA Fab [4], the “phage binding ELISA signal” value amounted to 1.66.
SPIMCTPDWMCLGF [Phage-3439]: the “Phage binding ELISA signal, Anti-PSMA Fab” value in the assay with PSMA Fab [1] came to 1.75. The “Phage binding ELISA signal, Anti-PSMA Fab in presence of PSMA” value with PSMA Fab [2] amounted to 0.0708.
With EVQYCVPAWMCEGF [Phage-3520], the “phage binding ELISA signal with PSMA antigen present” value with 006 PSMA Fab [3] is 0.117. Moreover, the “phage binding ELISA signal” value in the assay with 006 PSMA Fab [4] was found to be 1.68.
In the case of YGLRCEPAWMCQGF [Phage-3443], the “Phage binding ELISA signal, Anti-PSMA Fab” value in the assay with PSMA Fab [1] was 1.75. Besides, the “Phage binding ELISA signal, Anti-PSMA Fab in presence of PSMA” value in the assay with PSMA Fab [2] was determined as 0.0879.
Consider VKPVCKPVWMCVGF [Phage-3436], for which the “Phage binding ELISA signal, Anti-PSMA Fab” value in the assay with PSMA Fab [1] was determined as 1.76. The “Phage binding ELISA signal, Anti-PSMA Fab in presence of PSMA” value in the assay with PSMA Fab [2] was 0.122.
For the molecule HSVHCVPMWMCTGF (also called Peptide-180 library clone) [Phage-3738], in the assay with PSMA Fab [5], the “Phage binding ELISA signal … of PSMA antigen” value was found to be 0.0781. Also, the “Phage binding ELISA signal, Anti-PSMA Fab” value with PSMA Fab [6] worked out at 1.39.
ALLSCVPPWMCLGL [Phage-3522]: the “phage binding ELISA signal with PSMA antigen present” value with 006 PSMA Fab [3] came to 0.0728. Also, the “phage binding ELISA signal” value in the assay with 006 PSMA Fab [4] was 1.68.
In the case of ELPVCRPSWMCGGL (also called Peptide-180 library clone) [Phage-3734], the “Phage binding ELISA signal … of PSMA antigen” value with PSMA Fab [5] is 0.0603. In addition, the “Phage binding ELISA signal, Anti-PSMA Fab” value with PSMA Fab [6] was 1.4.
Take PAQMCIPQWMCNWL [Phage-3438]: the “Phage binding ELISA signal, Anti-PSMA Fab” value with PSMA Fab [1] turned out to be 1.75. The “Phage binding ELISA signal, Anti-PSMA Fab in presence of PSMA” value in the assay with PSMA Fab [2] was found to be 0.0635.
In the same order, the values of TPHACVPDWMCYGF [Phage-3444] are 1.75 and 0.0843.
For EERICKPQWMCSAF [Phage-3530], in the assay with 006 PSMA Fab [3], the “phage binding ELISA signal with PSMA antigen present” value is 0.0804. The “phage binding ELISA signal” value with 006 PSMA Fab [4] turned out to be 1.66.
On to LYKECVPQWMCSGF (also called Peptide-180 library clone) [Phage-3731], for which the “Phage binding ELISA signal … of PSMA antigen” value with PSMA Fab [5] turned out to be 0.0798. Further, in the assay with PSMA Fab [6], the “Phage binding ELISA signal, Anti-PSMA Fab” value is 1.4.
In the case of PVRVCIPQWMCIGF [Phage-3440], the “Phage binding ELISA signal, Anti-PSMA Fab” value with PSMA Fab [1] is 1.75. Besides, in the assay with PSMA Fab [2], the “Phage binding ELISA signal, Anti-PSMA Fab in presence of PSMA” value is 0.13.
Turning to DYSVCRPAWMCQGF (cysteine pairing not given here; also: fused to phage pIII, also called Peptide-180 library clone) [Phage-3729], in the assay with PSMA Fab [5], the “Phage binding ELISA signal … of PSMA antigen” value stood at 0.0699. For the same molecule, the “Phage binding ELISA signal, Anti-PSMA Fab” value with PSMA Fab [6] amounted to 1.41.
On to VTPRCIPEWMCAGF (cysteine pairing not given here; also: fused to pIII of bacteriophage) [Phage-3442], for which, in the assay with PSMA Fab [1], the “Phage binding ELISA signal, Anti-PSMA Fab” value came out at 1.75. For the same molecule, the “Phage binding ELISA signal, Anti-PSMA Fab in presence of PSMA” value in the assay with PSMA Fab [2] was 0.106.
As to VVPWCSPAWMCSGF [Phage-3529], the “phage binding ELISA signal with PSMA antigen present” value with 006 PSMA Fab [3] stood at 0.0752. The “phage binding ELISA signal” value in the assay with 006 PSMA Fab [4] was 1.67.
In the same order, the values of GYVMCEPRWMCEGL [Phage-3528] are 0.0803 and 1.67.
ADVRCVPDWMCWGM (also called Peptide-180 library clone) [Phage-3733]: in the assay with PSMA Fab [5], the “Phage binding ELISA signal … of PSMA antigen” value worked out at 0.0602. Also, the “Phage binding ELISA signal, Anti-PSMA Fab” value in the assay with PSMA Fab [6] turned out to be 1.4.
Take DMARCIPAWMCTGF [Phage-3523]: in the assay with 006 PSMA Fab [3], the “phage binding ELISA signal with PSMA antigen present” value was determined as 0.106. Moreover, the “phage binding ELISA signal” value with 006 PSMA Fab [4] was 1.68.
In the case of FTAQCVPLWMCLGF (also called Peptide-180 library clone) [Phage-3736], the “Phage binding ELISA signal … of PSMA antigen” value in the assay with PSMA Fab [5] was determined as 0.0789. The “Phage binding ELISA signal, Anti-PSMA Fab” value with PSMA Fab [6] is 1.39.
The like results for TGMACVPWWMCEGF (also called Peptide-180 library clone) [Phage-3732] were, in that order, 0.0812 and 1.4.
In the case of WFRMCEPSWMCEGF [Phage-3527], in the assay with 006 PSMA Fab [3], the “phage binding ELISA signal with PSMA antigen present” value stood at 0.11. Besides, in the assay with 006 PSMA Fab [4], the “phage binding ELISA signal” value came to 1.67.
The like results for GPKICVPMWMCDGF [Phage-3518] were, in that order, 0.116 and 1.68.
Turning to MPIYCVPEWMCQGL [Phage-3446], the “Phage binding ELISA signal, Anti-PSMA Fab” value with PSMA Fab [1] came out at 1.75. The “Phage binding ELISA signal, Anti-PSMA Fab in presence of PSMA” value with PSMA Fab [2] was 0.0867.
As for YPPLCKPEWMCVGL [Phage-3525], the “phage binding ELISA signal with PSMA antigen present” value in the assay with 006 PSMA Fab [3] is 0.0714. Moreover, in the assay with 006 PSMA Fab [4], the “phage binding ELISA signal” value was 1.67.
Regarding ETMICKPEWMCTGF [Phage-3441], the “Phage binding ELISA signal, Anti-PSMA Fab” value in the assay with PSMA Fab [1] was 1.75. Further, the “Phage binding ELISA signal, Anti-PSMA Fab in presence of PSMA” value with PSMA Fab [2] came to 0.0818.
QVKYCIPEWMCSSF (also called Peptide-180 library clone) [Phage-3735]: the “Phage binding ELISA signal … of PSMA antigen” value in the assay with PSMA Fab [5] was found to be 0.0671. Besides, in the assay with PSMA Fab [6], the “Phage binding ELISA signal, Anti-PSMA Fab” value amounted to 1.4.
In the same order, the values of LLLRCEPTWMCTGF (also called Peptide-180 library clone) [Phage-3740] are 0.0711 and 1.39.
Consider ELLHCKPMWMCIGL [Phage-3524], for which the “phage binding ELISA signal with PSMA antigen present” value with 006 PSMA Fab [3] was 0.0864. Moreover, in the assay with 006 PSMA Fab [4], the “phage binding ELISA signal” value was found to be 1.67.
For LIALCKPPWMCEWF [Phage-3526], the “phage binding ELISA signal with PSMA antigen present” value in the assay with 006 PSMA Fab [3] came to 0.213. The “phage binding ELISA signal” value with 006 PSMA Fab [4] is 1.67.
On to WTPLCKPLWMCQGL (also called Peptide-180 library clone) [Phage-3741], for which the “Phage binding ELISA signal … of PSMA antigen” value with PSMA Fab [5] is 0.16. Besides, the “Phage binding ELISA signal, Anti-PSMA Fab” value with PSMA Fab [6] stood at 1.39.
Consider VVRHCVPTWMCTGF [Phage-3532], for which the “phage binding ELISA signal with PSMA antigen present” value in the assay with 006 PSMA Fab [3] turned out to be 0.102. In the assay with 006 PSMA Fab [4], the “phage binding ELISA signal” value was 1.66.
